First the molecules themselves.
B1: 3E10 anti-NP monoclonal antibody (antibody, V domains shown)
VH: EVQLEQSGPELVRPGVSVKISCKGSGYTFTDYAMHWVKQSHAKSLEWIGVISTYSGNTSYNQKFKGKATMTVDKSSSTAYMELARLTAEDSAIYYCANGGNYGFDYWGQGTTLTVSS
VL: DIVLTQSPKFMSTSVGDRVSITCKASQDVGTAVAWYQQKPGQSPRLLIYWTSTRHTGVPDRFTGSGSGTDFTLTISNVQSEDLADYFCQQYSSYPLTFGGGTKLEIK
B2: 5B6.8 anti-NP monoclonal antibody (antibody, V domains shown)
VH: B1 VH with E1Q, E5Q, Q6E
VL: DIVITQSPKFMSTSVGDRVSITCEASQDVTTAVAWYQQKPGQSPKLLIYSASYRFTGVPDRFTGSGSGTDFTFTISSVQAEDLAVYYCQQHYSSPLTFGAGTKLELK
B3: 5B6 anti-NP monoclonal antibody (antibody, V domains shown)
VH: QVQLQESGPELKKPGETVKISCTASGYTFANYGMNWVKQAPGKGLKWMGWINTYTGETTYADDFKGRFAFSLETSASTASLQINKLKNEDTATYFCTRSVLLRSYFDYGGQGTTLTVSS
VL: B2 VL with I4M, T56A
B4: 3F10 anti-NP monoclonal antibody (antibody, V domains shown)
VH: EVQLEESGPELKKPGETVKISCKASGYTFTDYSMHWVKQAPGKGLKWMGWINTETGEPTYADDFKGRFAFSLETSASTASLQINNLKNEDTATYFCGSGSRYSWYFDVWGAGTTVTVSS
VL: DIVLTQSPKFMSTSLGDRVSVTCKASQSVGTNVAWFQQNSGQSPKALIYSASYRYSGVPDRFTGSGSGTDFTLTISNVKSEDLAEYFCQQYNSYPLAFGGGTKVEIK

Changes are numbered by the printed parent chain.

Sequence of SARS-CoV NP antigen (Sino Biological) (P59595 whole entry): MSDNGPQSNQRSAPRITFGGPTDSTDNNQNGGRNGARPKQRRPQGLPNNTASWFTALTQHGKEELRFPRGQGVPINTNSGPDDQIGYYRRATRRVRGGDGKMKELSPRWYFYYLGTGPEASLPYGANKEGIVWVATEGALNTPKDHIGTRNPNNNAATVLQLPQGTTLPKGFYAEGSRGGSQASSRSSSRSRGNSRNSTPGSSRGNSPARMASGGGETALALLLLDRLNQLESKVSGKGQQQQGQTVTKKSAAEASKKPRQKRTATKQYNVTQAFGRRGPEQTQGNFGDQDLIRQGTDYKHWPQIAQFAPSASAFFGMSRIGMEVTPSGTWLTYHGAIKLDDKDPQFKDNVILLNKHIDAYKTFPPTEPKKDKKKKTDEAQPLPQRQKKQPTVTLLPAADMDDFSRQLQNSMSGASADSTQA

The test has as its target SARS-CoV NP antigen (Sino Biological) (SARS-CoV, UniProt P59595 1-422). The experiment in a line: indirect ELISA, SARS-CoV NP coated, anti-mouse IgG-HRP.
The molecule B1 came in with an EC50 of 2 ng/mL.

B2 yielded an EC50 of 1320 ng/mL.

In the case of B3, the concentration for a half-maximal effect (EC50) stood at 4 ng/mL.

Take B4: the EC50 stood at 10 ng/mL.

For the origin of these results see patent publication KR20230039786A (dated 2023).
